Results on six molecules are retold here after patent publication US12545899B2, “Luciferase enzymes for use with thermostable luciferins in bioluminescent assays” (Promega Corporation, priority 2018, dated 2026).

Data set [1] is described as follows: Effect of individual mutations: maximum luminescence with CS0333. The class given is biochemical. Particulars: 10 fM to 1 mM CS0333; Detection Reagent (DR) buffer. The procedure: Experiments were also conducted to evaluate and compare the activities of the various luciferase enzyme variants, including the effects of individual amino acid mutations. To evaluate the effect of individual mutations on luciferase enzyme variants, 0.005 mg/ml luciferase enzyme variant was mixed with 1 mM ATP+10 fM to 1 mM CS0333 in Detection Reagent (DR) buffer.

The nature of data set [2]: Differential scanning fluorimetry (DSF) analysis. The class given is physicochemical. An outline of the steps: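 Enzymes mixed with Sypro Orange at 5× final, heated 30–95° C at 1° C per minute with fluorescence read every 60 s. Storage buffer 50 mM HEPES pH 7.5, 100 mM NaCl, 2 mM EDTA, or for luciferase variants 20 mM HEPES pH 7.5, 200 mM NaCl, 1 mM EDTA; per-minute fluorescence change plotted against temperature.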
(Differential scanning fluorimetry follows unfolding on heating by fluorescence.)

The nature of data set [3]: Kinetic analysis of thermostable variants with CS0333 (Table 10). The class given is biochemical. Here is the method: (§1) Experiments were also conducted to evaluate the activities (i.e. Vmax and Km) of the various thermostable luciferase variants of Ppe (SEQ ID NO: 1) described above.
(§2) Tables 10 and 11 include representative results of kinetic analysis of the thermostable variants with D/L luciferin, CS0333, and CS0280. […] MK0135 and MK0137 have amino acid substitutions that improve thermostability relative to MK0133 and MK0134, respectively, while retaining activity on the luciferin analogs CS0333 and CS0280.

The nature of data set [4]: Kinetic analysis of thermostable variants with CS0280 (Table 10). The class given is biochemical. Here is the method:
as §1, §2

A short description of data set [5]: Kinetic analysis of thermostable variants with D/L-luciferin (Table 10). The class given is biochemical. Here is the method: as §1, §2

B1: MK0125: SEQ ID NO: 92; H244W+T344A+I396L+S193A+N228D+L305F+S306P+I109V (protein)
chain: MADKNILYGPEPFYPLEDGTAGEQMFDALSRYAAIPGCIALTNAHTKENVLYEEFLKLSCRLAESFKKYGLKQNDTIAVCSENSLQFFLPVIASLYLGIIVAPVNDKYVERELIHSLGIVKPRIVFCSKNTFQKVLNVKSKLKSIETIIILDLNEDLGGYQCLNNFISQNSDSNLDVKKFKPYSFNRDDQVAAIMFSSGTTGLPKGVMLTHKNIVARFSIAKDPTFGDAINPTSAILTVIPFHWGFGMMTTLGYFTCGFRVVLMHTFEEKLFLQSLQDYKVESTLLVPTLMAFLAKSALVEKYDFPHLKEIASGGWPLSKEIGEMVKKRFKLNFVRQGYGLTEITSAVLITPKGDAKPGSTGKIVPLHAVKVVDPTTGKILGPNEPGELYFKGPMKMKGYYNNEEATKAIIDNDGWLRSGDIAYYDNDGHFYIVDRLKSLIKYKGYQVAPAEIEGILLQHPYIVDAGVTGIPDEAAGELPAAGVVVQTGKYLNEQIVQDYVASQVSTAKWLRGGVKFLDEIPKGSTGKIDRKVLRQMLEKHTNGHHHHHHHH
B1: the “Vmax (RLU) with CS0333” value in data set [1] was 2,625,480 RLU. The “DSF Tm (° C.)” value in data set [2] (Table 9A) amounted to 69 °C.

B2: MK0133: SEQ ID NO: 101; H244W+T344I+I396K+S193A+N228D+L305F+S306P+I109V+C38R+F55I+A316W+T342S+V348I (protein)
chain: MADKNILYGPEPFYPLEDGTAGEQMFDALSRYAAIPGRIALTNAHTKENVLYEEILKLSCRLAESFKKYGLKQNDTIAVCSENSLQFFLPVIASLYLGIIVAPVNDKFVERELIHSLGIVKPRIVFCSKNTFQKVLNVKSKLKSIETIIILDLNEDLGGYQCLNNFISQNSDSNLDVKKFKPYSFNRDDQVAAIMFSSGTTGLPKGVMLTHKNIVARFSIAKDPTFGDAINPTSAILTVIPFHWGFGMMTTLGYFTCGFRVVLMHTFEEKLFLQSLQDYKVESTLLVPTLMAFLAKSALVEKYDFPHLKEIASGGWPLSKEIGEMVKKRFKLNFVRQGMGLTEITSAVLITPKGDAKPGSTGKIVPLHAVKVVDPTTGKILGPNEPGELYFKGPMKMKGYYNNEEATKAIIDNDGWLRSGDIAYYDNDGHFYIVDRLKSLIKYKGYQVAPAEIEGILLQHPYIVDAGVTGIPDEAAGELPAAGVVVQTGKYLNEQIVQDYVASQVSTAKWLRGGVKFLDEIPKGSTGKIDRKVLRQMLEKHTNGHHHHHHHH
Broadly, the Km is the substrate concentration at which the rate is half of its maximum. Turning to B2, the Km in data set [3] (BrightGlo Buffer) was 14 µM; in data set [3] (Detection Reagent Buffer) it was 77.4 µM; in data set [4] (BrightGlo Buffer) it was 5.36 µM; in data set [4] (Detection Reagent Buffer) it was 41.6 µM; in data set [5] (BrightGlo Buffer), 0.13 µM; in data set [5] (Detection Reagent Buffer), 0.993 µM. Besides, the “Vmax (RLU)” value in data set [3] (BrightGlo Buffer) was 27,149,096 RLU; in data set [3] (Detection Reagent Buffer), 21,861,957 RLU; in data set [4] (BrightGlo Buffer), 2,774,469 RLU; in data set [4] (Detection Reagent Buffer), 266,359 RLU; in data set [5] (BrightGlo Buffer), 1,361,878 RLU; in data set [5] (Detection Reagent Buffer) it was 1,545,274 RLU. Besides, the “DSF Tm (° C.)” value in data set [2] (Table 9B) came out at 59 °C.

B3: MK0108: SEQ ID NO: 75; I109V (protein)
chain: MADKNILYGPEPFYPLEDGTAGEQMFDALSRYAAIPGCIALTNAHTKENVLYEEFLKLSCRLAESFKKYGLKQNDTIAVCSENSLQFFLPVIASLYLGIIVAPVNDKYIERELIHSLGIVKPRIVFCSKNTFQKVLNVKSKLKSIETIIILDLNEDLGGYQCLNNFISQNSDSNLDVKKFKPYSFNRDDQVASIMFSSGTTGLPKGVMLTHKNIVARFSIAKDPTFGNAINPTSAILTVIPFHHGFGMMTTLGYFTCGFRVVLMHTFEEKLFLQSLQDYKVESTLLVPTLMAFLAKSALVEKYDLSHLKEIASGGAPLSKEIGEMVKKRFKLNFVRQGYGLTETTSAVLITPKGDAKPGSTGKIVPLHAVKVVDPTTGKILGPNEPGELYFKGPMLMKGYYNNEEATKAIIDNDGWLRSGDIAYYDNDGHFYIVDRLKSLIKYKGYQVAPAEIEGILLQHPYIVDAGVTGIPDEAAGELPAAGVVVQTGKYLNEQIVQDYVASQVSTAKWLRGGVKFLDEIPKGSTGKIDRKVLRQMLEKHTNGHHHHHHHH
Turning to B3, in data set [1], the “Vmax (RLU) with CS0333” value is given as 1,300 RLU. Moreover, the “DSF Tm (° C.)” value in data set [2] (Table 9A) is 78 °C.

B4: MK0134: SEQ ID NO: 102; H244W+T344A+I396K+S193A+N228D+L305F+S306P+I109V+C38R+F55I+Y108F+A316W+Y339M (protein)
chain: MADKNILYGPEPFYPLEDGTAGEQMFDALSRYAAIPGRIALTNAHTKENVLYEEILKLSCRLAESFKKYGLKQNDTIAVCSENSLQFFLPVIASLYLGIIVAPVNDKYVERELIHSLGIVKPRIVFCSKNTFQKVLNVKSKLKSIETIIILDLNEDLGGYQCLNNFISQNSDSNLDVKKFKPYSFNRDDQVAAIMFSSGTTGLPKGVMLTHKNIVARFSIAKDPTFGDAINPTSAILTVIPFHWGFGMMTTLGYFTCGFRVVLMHTFEEKLFLQSLQDYKVESTLLVPTLMAFLAKSALVEKYDFPHLKEIASGGWPLSKEIGEMVKKRFKLNFVRQGYGLSEITSAILITPKGDAKPGSTGKIVPLHAVKVVDPTTGKILGPNEPGELYFKGPMKMKGYYNNEEATKAIIDNDGWLRSGDIAYYDNDGHFYIVDRLKSLIKYKGYQVAPAEIEGILLQHPYIVDAGVTGIPDEAAGELPAAGVVVQTGKYLNEQIVQDYVASQVSTAKWLRGGVKFLDEIPKGSTGKIDRKVLRQMLEKHTNGHHHHHHHH
Consider B4, for which the Km in data set [3] (BrightGlo Buffer) came to 2.24 µM; in data set [3] (Detection Reagent Buffer) it was 26.5 µM; in data set [4] (BrightGlo Buffer), 1.21 µM; in data set [4] (Detection Reagent Buffer), 6.12 µM; in data set [5] (BrightGlo Buffer) it was 0.0257 µM; in data set [5] (Detection Reagent Buffer) it was 0.161 µM. Also, the “Vmax (RLU)” value in data set [3] (BrightGlo Buffer) is 11,167,451 RLU; in data set [3] (Detection Reagent Buffer), 9,278,637 RLU; in data set [4] (BrightGlo Buffer) it was 15,499,640 RLU; in data set [4] (Detection Reagent Buffer) it was 1,208,016 RLU; in data set [5] (BrightGlo Buffer) it was 377,267 RLU; in data set [5] (Detection Reagent Buffer), 430,060 RLU. For the same molecule, the “DSF Tm (° C.)” value in data set [2] (Table 9B) came to 57 °C.

B5: MK0127: SEQ ID NO: 93; H244W+T344A+I396K+S193A+L305F+S306P+I109V (protein)
chain: MADKNILYGPEPFYPLEDGTAGEQMFDALSRYAAIPGCIALTNAHTKENVLYEEFLKLSCRLAESFKKYGLKQNDTIAVCSENSLQFFLPVIASLYLGIIVAPVNDNYVERELIHSLGIVKPRIVFCSKNTFQKVLNVKSKLKSIETIIILDLNEDLGGYQCLNNFISQNSDSNLDVKKFKPYSFNRDDQVAAIMFSSGTTGLPKGVMLTHKNIVARFSIAKDPTFGDAINPTSAILTVIPFHWGFGMMTTLGYFTCGFRVVLMHTFEEKLFLQSLQDYKVESTLLVPSLMAFLAKSALVEKYDFPHLKEIASGGAPLSKEIGEMVKKRFKLNFVRQGYGLTEATSAVLITPKGDAKPGSTGKIVPLHAVKVVDPTTGKILGPNEPGELYFKGPMKMKGYYNNEEATKAIIDNDGWLRSGDIAYYDNDGHFYIVDRLKSLIKYKGYQVAPAEIEGILLQHPYIVDAGVTGIPDEAAGELPAAGVVVQTGKYLNEQIVQDYVASQVSTAKWLRGGVKFLDEIPKGSTGKIDRKVLRQMLEKHTNGHHHHHHHH
As to B5, the “Vmax (RLU) with CS0333” value in data set [1] is 2,293,340 RLU. Besides, the “DSF Tm (° C.)” value in data set [2] (Table 9A) amounted to 66 °C.

B6: MK0109: SEQ ID NO: 76; S193A (protein)
chain: MADKNILYGPEPFYPLEDGTAGEQMFDALSRYAAIPGCIALTNAHTKENVLYEEFLKLSCRLAESFKKYGLKQNDTIAVCSENSLQFFLPVIASLYLGIIVAPVNDKYIERELIHSLGIVKPRIVFCSKNTFQKVLNVKSKLKSIETIIILDLNEDLGGYQCLNNFISQNSDSNLDVKKFKPYSFNRDDQVAAIMFSSGTTGLPKGVMLTHKNIVARFSIAKDPTFGDAINPTSAILTVIPFHWGFGMMTTLGYFTCGFRVVLMHTFEEKLFLQSLQDYKVESTLLVPTLMAFLAKSALVEKYDFPHLKEIASGGAPLSKEIGEMVKKRFKLNFVRQGYGLTEATSAVLITPKGDAKPGSTGKIVPLHAVKVVDPTTGKILGPNEPGELYFKGPMKMKGYYNNEEATKAIIDNDGWLRSGDIAYYDNDGHFYIVDRLKSLIKYKGYQVAPAEIEGILLQHPYIVDAGVTGIPDEAAGELPAAGVVVQTGKYLNEQIVQDYVASQVSTAKWLRGGVKFLDEIPKGSTGKIDRKVLRQMLEKHTNGHHHHHHHH
With B6, the “Vmax (RLU) with CS0333” value in data set [1] is 1,114 RLU. In addition, the “DSF Tm (° C.)” value in data set [2] (Table 9A) was found to be 77 °C.
